Data published in patent US8822171.

Target: recombinant human tau, largest isoform (2N4R)

B1: casein kinase 1 (CK1) (protein)
chain: MELRVGNRYRLGRKIGSGSFGDIYLGTDIAAGEEVAIKLECVKTKHPQLHIESKIYKMMQGGVGIPTIRWCGAEGDYNVMVMELLGPSLEDLFNFCSRKFSLKTVLLLADQMISRIEYIHSKNFIHRDVKPDNFLMGLGKKGNLVYIIDFGLAKKYRDARTHQHIPYRENKNLTGTARYASINTHLGIEQSRRDDLESLGYVLMYFNLGSLPWQGLKAATKRQKYERISEKKMSTPIEVLCKGYPSEFATYLNFCRSLRFDDKPDYSYLRQLFRNLFHRQGFSYDYVFDWNMLKFGASRAADDAERERRDREERLRH
New sites identified in recombinant tau (phosphorylated residues, numbered on 441-residue human tau): (46/50), 113, 131, 149, 169, 184, 208, (210, 212), 214, 237, 238, 241, 258, 262, 263, 285, 289, 305, 341, 352, 356, 361, 373, 386, (412/413/414/416, 2 sites), 416, 433, 435 | in vitro phosphorylation of recombinant tau, sites identified by LC/MS/MS: CK1 found 28 new sites making a total of 30 sites in all.
